Results on 18 molecules are retold here after patent US20200054723A1 (ALLAKOS, published 2020).

The chains are these.
B1: mouse 2C4 antibody (antibody, mouse IgG1, kappa)
heavy: QVQLKRASGPGLVAPSQSLSITCTVSGFSLTIYGAHWVRQPPGKGLEWLGVIWAGGSTNYNSALMSRLSISKDNSKSQVFLKINSLQTDDTALYYCARDGSSPYYYSMEYWGQGTSVTVSSAKTTPPSVYPLAPGSAAQTNSMVTLGCLVKGYFPEPVTVTWNSGSLSSGVHTFPAVLESDLYTLSSSVTVPSSPRPSETVTCNVAHPASSTKVDKKIVPRDCGCKPCICTVPEVSSVFIFPPKPKDVLTITLTPKVTCVVVDISKDDPEVQFSWFVDDVEVHTAQTQPREEQFNSTFRSVSELPIMHQDWLNGKEFKCRVNSAAFPAPIEKTISKTKGRPKAPQVYTIPPPKEQMAKDKVSLTCMITDFFPEDITVEWQWNGQPAENYKNTQPIMNTNGSYFVYSKLNVQKSNWEAGNTFTCSVLHEGLHNHHTEKSLSHSPG
light: EIILTQSPAIMSASPGEKVSITCSATSSVSYMHWFQQKPGTSPKLWIYSTSNLASGVPVRFSGSGSGTSYSLTISRMEAEDAATYYCQQRSSYPFTFGSGTKLEIKADAAPTVSIFPPSSEQLTSGGASVVCFLNNFYPKDINVKWKIDGSERQNGVLNSWTDQDSKDSTYSMSSTLTLTKDEYERHNSYTCEATHKTSTSPIVKSFNRNEC
notes: murine IgG1/kappa; also called mo2C4; m2C4
B2: HAKA (antibody, human IgG1, V domains shown)
VH: EVQLVESGGGLVQPGGSLRLSCAASGFSLTIYGAHWVRQAPGKGLEWVSVIWAGGSTNYNSALMSRFTISKDNSKNTVYLQMNSLRAEDTAVYYCARDGSSPYYYSMEYWGQGTTVTVSS
VL: EIVLTQSPATLSLSPGERATLSCSATSSVSYMHWFQQKPGQAPRLLIYSTSNLASGIPARFSGSGSGTDFTLTISSLEPEDFAVYYCQQRSSYPFTFGPGTKLDIK
notes: human IgG1/kappa
B3: HAKF (antibody, human IgG1, V domains shown)
VH: EVQLVESGGGLVQPGGSLRLSCAASGFSLTIYGAHWVRQAPGKGLEWVSVIWAGGSTNYNSALMSRFTISKDNSKNTVYLQMNSLRAEDTAVYYCARDGSSPYYYSMEYWGQGTTVTVSS
VL: EIVLTQSPATLSLSPGERATLSCSATSSVSYMHWFQQKPGQAPRLLIYSTSNLASGIPARFSGSGSGTDYTLTISSLEPEDFAVYYCQQRSSYPFTFGPGTKLDIK
notes: human IgG1/kappa
B4: HBKD (antibody, human IgG1, V domains shown)
VH: EVQLVESGGGLVQPGGSLRLSCAVSGFSLTIYGAHWVRQAPGKGLEWLGVIWAGGSTNYNSALMSRLSISKDNSKNTVYLQMNSLRAEDTAVYYCARDGSSPYYYSMEYWGQGTTVTVSS
VL: EIVLTQSPATLSLSPGERATLSCSATSSVSYMHWFQQKPGQAPRLWIYSTSNLASGIPARFSGSGSGTDFTLTISSLEPEDFAVYYCQQRSSYPFTFGPGTKLDIK
notes: human IgG1/kappa
B5: HBKB (antibody, human IgG1, V domains shown)
VH: EVQLVESGGGLVQPGGSLRLSCAVSGFSLTIYGAHWVRQAPGKGLEWLGVIWAGGSTNYNSALMSRLSISKDNSKNTVYLQMNSLRAEDTAVYYCARDGSSPYYYSMEYWGQGTTVTVSS
VL: EIILTQSPATLSLSPGERATLSCSATSSVSYMHWFQQKPGQAPRLWIYSTSNLASGVPARFSGSGSGTDYTLTISSLEPEDFAVYYCQQRSSYPFTFGPGTKLDIK
notes: human IgG1/kappa
B6: HBKE (antibody, human IgG1, V domains shown)
VH: EVQLVESGGGLVQPGGSLRLSCAVSGFSLTIYGAHWVRQAPGKGLEWLGVIWAGGSTNYNSALMSRLSISKDNSKNTVYLQMNSLRAEDTAVYYCARDGSSPYYYSMEYWGQGTTVTVSS
VL: EIVLTQSPATLSLSPGERATLSCSATSSVSYMHWFQQKPGQAPRLLIYSTSNLASGVPARFSGSGSGTDFTLTISSLEPEDFAVYYCQQRSSYPFTFGPGTKLDIK
notes: human IgG1/kappa
B7: HCKA (antibody, human IgG1, V domains shown)
VH: EVQLVESGGGLVQPGGSLRLSCAVSGFSLTIYGAHWVRQAPGKGLEWVSVIWAGGSTNYNSALMSRFTISKDNSKNTVYLQMNSLRAEDTAVYYCARDGSSPYYYSMEYWGQGTTVTVSS
VL: EIVLTQSPATLSLSPGERATLSCSATSSVSYMHWFQQKPGQAPRLLIYSTSNLASGIPARFSGSGSGTDFTLTISSLEPEDFAVYYCQQRSSYPFTFGPGTKLDIK
notes: human IgG1/kappa
B8: HAKE (antibody, human IgG1, V domains shown)
VH: EVQLVESGGGLVQPGGSLRLSCAASGFSLTIYGAHWVRQAPGKGLEWVSVIWAGGSTNYNSALMSRFTISKDNSKNTVYLQMNSLRAEDTAVYYCARDGSSPYYYSMEYWGQGTTVTVSS
VL: EIVLTQSPATLSLSPGERATLSCSATSSVSYMHWFQQKPGQAPRLLIYSTSNLASGVPARFSGSGSGTDFTLTISSLEPEDFAVYYCQQRSSYPFTFGPGTKLDIK
notes: human IgG1/kappa
B9: HBKFmut (antibody, human IgG1, V domains shown)
VH: EVQLVESGGGLVQPGGSLRLSCAVSGFSLTIYGAHWVRQAPGKGLEWLGVIWAGGSTNYNSALMSRLSISKDNSKNTVYLQMNSLRAEDTAVYYCARDGSSPYYYSMEYWGQGTTVTVSS
VL: EIVLTQSPATLSLSPGERATLSCSATSSVSYMHWFQQKPGQAPRLLIYSTSNLASGIPARFSGSGSGTDYTLTISSLEPEDFAVYYCQQRSSYPYTFGPGTKLDIK
notes: human IgG1/kappa
B10: HAKD (antibody, human IgG1, V domains shown)
VH: EVQLVESGGGLVQPGGSLRLSCAASGFSLTIYGAHWVRQAPGKGLEWVSVIWAGGSTNYNSALMSRFTISKDNSKNTVYLQMNSLRAEDTAVYYCARDGSSPYYYSMEYWGQGTTVTVSS
VL: EIVLTQSPATLSLSPGERATLSCSATSSVSYMHWFQQKPGQAPRLWIYSTSNLASGIPARFSGSGSGTDFTLTISSLEPEDFAVYYCQQRSSYPFTFGPGTKLDIK
notes: human IgG1/kappa
B11: HAKFmut (antibody, human IgG1, V domains shown)
VH: EVQLVESGGGLVQPGGSLRLSCAASGFSLTIYGAHWVRQAPGKGLEWVSVIWAGGSTNYNSALMSRFTISKDNSKNTVYLQMNSLRAEDTAVYYCARDGSSPYYYSMEYWGQGTTVTVSS
VL: EIVLTQSPATLSLSPGERATLSCSATSSVSYMHWFQQKPGQAPRLLIYSTSNLASGIPARFSGSGSGTDYTLTISSLEPEDFAVYYCQQRSSYPYTFGPGTKLDIK
notes: human IgG1/kappa
B12: HBKC (antibody, human IgG1, V domains shown)
VH: EVQLVESGGGLVQPGGSLRLSCAVSGFSLTIYGAHWVRQAPGKGLEWLGVIWAGGSTNYNSALMSRLSISKDNSKNTVYLQMNSLRAEDTAVYYCARDGSSPYYYSMEYWGQGTTVTVSS
VL: EIILTQSPATLSLSPGERATLSCSATSSVSYMHWFQQKPGQAPRLLIYSTSNLASGIPARFSGSGSGTDFTLTISSLEPEDFAVYYCQQRSSYPFTFGPGTKLDIK
notes: human IgG1/kappa
B13: HAKB (antibody, human IgG1, V domains shown)
VH: EVQLVESGGGLVQPGGSLRLSCAASGFSLTIYGAHWVRQAPGKGLEWVSVIWAGGSTNYNSALMSRFTISKDNSKNTVYLQMNSLRAEDTAVYYCARDGSSPYYYSMEYWGQGTTVTVSS
VL: EIILTQSPATLSLSPGERATLSCSATSSVSYMHWFQQKPGQAPRLWIYSTSNLASGVPARFSGSGSGTDYTLTISSLEPEDFAVYYCQQRSSYPFTFGPGTKLDIK
notes: human IgG1/kappa
B14: HBKA (antibody, human IgG1, V domains shown)
VH: EVQLVESGGGLVQPGGSLRLSCAVSGFSLTIYGAHWVRQAPGKGLEWLGVIWAGGSTNYNSALMSRLSISKDNSKNTVYLQMNSLRAEDTAVYYCARDGSSPYYYSMEYWGQGTTVTVSS
VL: EIVLTQSPATLSLSPGERATLSCSATSSVSYMHWFQQKPGQAPRLLIYSTSNLASGIPARFSGSGSGTDFTLTISSLEPEDFAVYYCQQRSSYPFTFGPGTKLDIK
notes: human IgG1/kappa
B15: HAKG (antibody, human IgG1, V domains shown)
VH: EVQLVESGGGLVQPGGSLRLSCAASGFSLTIYGAHWVRQAPGKGLEWVSVIWAGGSTNYNSALMSRFTISKDNSKNTVYLQMNSLRAEDTAVYYCARDGSSPYYYSMEYWGQGTTVTVSS
VL: EIVLTQSPATLSLSPGERATLSCSATSSVSYMHWYQQKPGQAPRLLIYSTSNLASGIPARFSGSGSGTDFTLTISSLEPEDFAVYYCQQRSSYPFTFGPGTKLDIK
notes: human IgG1/kappa
B16: HAKC (antibody, human IgG1, V domains shown)
VH: EVQLVESGGGLVQPGGSLRLSCAASGFSLTIYGAHWVRQAPGKGLEWVSVIWAGGSTNYNSALMSRFTISKDNSKNTVYLQMNSLRAEDTAVYYCARDGSSPYYYSMEYWGQGTTVTVSS
VL: EIILTQSPATLSLSPGERATLSCSATSSVSYMHWFQQKPGQAPRLLIYSTSNLASGIPARFSGSGSGTDFTLTISSLEPEDFAVYYCQQRSSYPFTFGPGTKLDIK
notes: human IgG1/kappa
B17: HBKG (antibody, human IgG1, V domains shown)
VH: EVQLVESGGGLVQPGGSLRLSCAVSGFSLTIYGAHWVRQAPGKGLEWLGVIWAGGSTNYNSALMSRLSISKDNSKNTVYLQMNSLRAEDTAVYYCARDGSSPYYYSMEYWGQGTTVTVSS
VL: EIVLTQSPATLSLSPGERATLSCSATSSVSYMHWYQQKPGQAPRLLIYSTSNLASGIPARFSGSGSGTDFTLTISSLEPEDFAVYYCQQRSSYPFTFGPGTKLDIK
notes: human IgG1/kappa
B18: HBKF (antibody, human IgG1, V domains shown)
VH: EVQLVESGGGLVQPGGSLRLSCAVSGFSLTIYGAHWVRQAPGKGLEWLGVIWAGGSTNYNSALMSRLSISKDNSKNTVYLQMNSLRAEDTAVYYCARDGSSPYYYSMEYWGQGTTVTVSS
VL: EIVLTQSPATLSLSPGERATLSCSATSSVSYMHWFQQKPGQAPRLLIYSTSNLASGIPARFSGSGSGTDYTLTISSLEPEDFAVYYCQQRSSYPFTFGPGTKLDIK
notes: human IgG1/kappa

“And” between values parts separate entries of the source, which are not always exact repeats. Identical values can stand only once.

Broadly, the EC50 is the concentration that produces a half-maximal response.

T1 sequence (Q9NYZ4 17-363): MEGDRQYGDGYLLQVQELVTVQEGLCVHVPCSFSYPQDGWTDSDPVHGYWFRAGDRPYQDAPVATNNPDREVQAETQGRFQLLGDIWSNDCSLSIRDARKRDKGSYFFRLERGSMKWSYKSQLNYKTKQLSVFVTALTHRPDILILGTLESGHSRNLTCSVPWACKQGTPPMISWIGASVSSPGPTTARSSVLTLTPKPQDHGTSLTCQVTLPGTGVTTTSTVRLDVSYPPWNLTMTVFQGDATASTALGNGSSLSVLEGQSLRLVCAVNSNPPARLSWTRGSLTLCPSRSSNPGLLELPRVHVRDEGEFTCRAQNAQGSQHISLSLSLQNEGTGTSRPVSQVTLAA

The assay has as its target T1, recombinant human Siglec-8 extracellular domain (ECD) (human, UniProt Q9NYZ4 17-363).
T1 construct: extracellular domain; also called Siglec-8 ECD; full Siglec-8 ECD
Nature of the assay: ELISA, coated Siglec-8 ECD. The protocol:
Binding of recombinant human Siglec-8 extracellular domain (ECD) by chimeric 2E2 and chimeric 2C4 IgG1K antibodies was measured by ELISA. […] Three-fold serial dilutions of a chimeric antibody (ch2E2 or ch2C4) or mouse antibody (m2E2 or m2C4) in 0.2% BSA/TBS (starting concentration was 5000 ng/mL) was added to each coated well. The plate was incubated for 2 hours at room temperature and the wells were subsequently washed before addition of goat-anti-human Fc peroxidase conjugate (1:10000 dilution) or anti-mouse Fc peroxidase conjugate (1:30000 dilution) diluted in 0.2% BSA/TBS solution. The plate was incubated for 45 minutes at room temperature, followed by washing and addition of 30 μL K-blue HRP substrate (SkyBio Ltd) to each well. After incubation at room temperature for 15 minutes, the reaction was stopped by adding 10 μL of Red Stop solution (SkyBio Ltd) to each well. The optical density or the experimental samples was read at 650 nm using the ELISA reader PHERAStar FS (BMG Labtech).
The fully humanized antibody heavy and light chains were combined and compared with the chimeric antibody to determine if replacing the 4 Å and canonical framework residues and interface residues was sufficient to successfully humanize 2E2. Expi293 cells were co-transfected with combinations of different humanized light chain vectors in association with different humanized heavy chain vectors. Siglec-8 antigen was used to measure antibody binding by ELISA as described in Example 1.
(In general: In an ELISA, binding on a coated surface is turned into a signal by an enzyme label.)
With B1, the EC50 was found to be 0.115 nM. With B2, the EC50 is 0.085 nM and 0.058 nM. Turning to B3, the EC50 is 0.078 nM and 0.062 nM. On to B4, for which the concentration giving a half-maximal response (EC50) came out at 0.039 nM.

As for B5, the concentration giving a half-maximal response (EC50) came out at 0.056 nM. Regarding B6, the concentration for a half-maximal effect (EC50) was 0.061 nM. In the case of B7, the EC50 is 0.056 nM. Then B8, with 0.052 nM; and B9, with 0.048 nM. Then B10, with 0.058 nM; and B11, with 0.086 nM.

For the molecule B12, the EC50 was determined as 0.033 nM. Consider B13, for which the 50% effective concentration (EC50) came out at 0.071 nM. For B14 the value was 0.055 nM and 0.07 nM; for B15, 0.189 nM. For B16 the value was 0.066 nM. Turning to B17, the 50% effective concentration (EC50) amounted to 0.212 nM.

For the molecule B18, the half-maximal effective concentration (EC50) was 0.066 nM and 0.051 nM.
